Here are results for 25 sequences from the supplement of paper PMC10201428.

Data set [1] relates to VchCAST RNA-guided transposition machinery (E. coli BL21(DE3) host, lacZ target). Briefly: relative integration efficiency (T-RL orientation) vs wild-type transposon end (log2 (normalized fold change)); transposon end mutated: right end (5 bp flank + 75 bp right end); higher = more efficient transposition. An outline of the steps: (§1)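 Co-transformation of E. coli BL21(DE3) combined a pUC57 mini-transposon donor, holding barcoded pools of 1549 left-end or 1849 right-end variants, with a T7-driven plasmid encoding a CRISPR array, tniQ-cas8-cas7-cas6 and tnsA-tnsB-tnsC. After plating with 0.1 mM IPTG at 37°C for 18 h, input plasmids and genomic integration junctions were PCR-amplified and Illumina-sequenced across two biological output replicates, with four reference barcodes. Relative integration efficiency is the normalised, log-transformed output/input barcode fold change.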

Data set [2] shares this test system. Put plainly: relative integration efficiency (T-LR orientation) vs wild-type transposon end (log2 (normalized fold change)); transposon end mutated: right end (5 bp flank + 75 bp right end); higher = more efficient transposition. An outline of the steps:
as §1

± gives the standard deviation of the averaged measurements.

For “ACATTTGTTGATACAACCATAAAATGATAATTACACCCATAAATTGATAATTAGACACAAACGCCCGGTCGCGGTAAGAGGATCATAGTCAGACCAACATTGCTACGACCCGTATTCGCACCGACAC”, the results for the “relative integration efficiency (log2)” value in data set [1] and in data set [2] were -0.538 ± 0.21 and 2.66 ± 0.16, respectively.

As for “ACATTTGTTGATACAACCATAAAATGATAATTACACCCATAAATTGATAATTATACACAAACGCCCGGTCGCGGTAAGAGGATCATAGTCAGACCAACATTGCTACGACCCGTATTCGCACCGACAC”, the “relative integration efficiency (log2)” value was -1.49 ± 0.49 in data set [1] and 2.63 ± 0.19 in data set [2].

Consider “ACATTTGTTGATACAACCATAAAATGATAATTACACCCATAAATTGATAATTATACACCCCATAAATTGATATTGCCTCTGATCATAGTCAGACCAACATTGCTACGACCCGTATTCGCACCGACAC”, for which the “relative integration efficiency (log2)” value in data set [1] is -1.07 ± 0.23; in data set [2] it was 1.28 ± 0.067.

For “ACATTTGTTGATACAACCATAAAATGATAATTACACCCATAAATTGATAATTATACCACCCATAAATTGATATTGCCTCTGATCATAGTCAGACCAACATTGCTACGACCCGTATTCGCACCGACAC”, the “relative integration efficiency (log2)” value in data set [1] was -0.694 ± 0.23; in data set [2] it was 0.802 ± 0.067.

Turning to “ACATTTGTTGATACAACCATAAAATGATAATTACACCCATAAATTGATAATTATCAAAACACCCATAAATTGATATTGCCTCTGATCATAGTCAGACCAACATTGCTACGACCCGTATTCGCACCGA”, the “relative integration efficiency (log2)” value in data set [1] was -0.514 ± 0.17; in data set [2] it was 2.29 ± 0.22.

On to “ACATTTGTTGATACAACCATAAAATGATAATTACACCCATAAATTGATAATTATCAAACACCCATAAATTGATATTGCCTCTGATCATAGTCAGACCAACATTGCTACGACCCGTATTCGCACCGAC”, for which the “relative integration efficiency (log2)” value in data set [1] is -0.252 ± 0.046; in data set [2], 1.9 ± 0.28.

For the sequence “ACATTTGTTGATACAACCATAAAATGATAATTACACCCATAAATTGATAATTATCAACAAACGCCCGGTCGCGGTAAGAGGATCATAGTCAGACCAACATTGCTACGACCCGTATTCGCACCGACAC”, the figures for the “relative integration efficiency (log2)” value in data set [1] and in data set [2] were -0.451 ± 0.085 and 2.49 ± 0.05, respectively.

In the case of “ACATTTGTTGATACAACCATAAAATGATAATTACACCCATAAATTGATAATTATCAACAAACGCCCGGTCGCGGTACTCTGATCATAGTCAGACCAACATTGCTACGACCCGTATTCGCACCGACAC”, the “relative integration efficiency (log2)” value is -0.287 ± 0.0067 in data set [1] and 2.66 ± 0.038 in data set [2].

Regarding “ACATTTGTTGATACAACCATAAAATGATAATTACACCCATAAATTGATAATTATCAACAACATAAATTGATATTGCCTCTGATCATAGTCAGACCAACATTGCTACGACCCGTATTCGCACCGACAC”, the “relative integration efficiency (log2)” value in data set [1] is -0.911 ± 0.21; in data set [2], 1.36 ± 0.2.

On to “ACATTTGTTGATACAACCATAAAATGATAATTACACCCATAAATTGATAATTATCAACACCCATAAATTGATATTGCCTCTGATCATAGTCAGACCAACATTGCTACGACCCGTATTCGCACCGACA”, for which the “relative integration efficiency (log2)” value in data set [1] was -0.35 ± 0.052; in data set [2] it was 0.619 ± 0.036.

As for “ACATTTGTTGATACAACCATAAAATGATAATTACACCCATAAATTGATAATTATCAACCCCATAAATTGATATTGCCTCTGATCATAGTCAGACCAACATTGCTACGACCCGTATTCGCACCGACAC”, the “relative integration efficiency (log2)” value in data set [1] was -0.731 ± 0.18; in data set [2] it was 1.26 ± 0.17.

As for “ACATTTGTTGATACAACCATAAAATGATAATTACACCCATAAATTGATAATTATCACAAAACGCCCGGTCGCGGTAAGAGGATCATAGTCAGACCAACATTGCTACGACCCGTATTCGCACCGACAC”, the “relative integration efficiency (log2)” value in data set [1] was -0.437 ± 0.16; in data set [2] it was 2.81 ± 0.094.

Consider “ACATTTGTTGATACAACCATAAAATGATAATTACACCCATAAATTGATAATTATCACAAAACTAAATTGATATTGCCTCTGATCATAGTCAGACCAACATTGCTACGACCCGTATTCGCACCGACAC”, for which the figures for the “relative integration efficiency (log2)” value in data set [1] and in data set [2] were -0.531 ± 0.15 and 2.45 ± 0.22, respectively.

As to “ACATTTGTTGATACAACCATAAAATGATAATTACACCCATAAATTGATAATTATCACAAACATAAATTGATATTGCCTCTGATCATAGTCAGACCAACATTGCTACGACCCGTATTCGCACCGACAC”, the “relative integration efficiency (log2)” value in data set [1] was -0.114 ± 0.033; in data set [2], 0.898 ± 0.13.

Consider “ACATTTGTTGATACAACCATAAAATGATAATTACACCCATAAATTGATAATTATCACACAAATAAATTGATATTGCCTCTGATCATAGTCAGACCAACATTGCTACGACCCGTATTCGCACCGACAC”, for which the entries for the “relative integration efficiency (log2)” value in data set [1] and in data set [2] were -1.11 ± 0.18 and 2.06 ± 0.028, respectively.

Consider “ACATTTGTTGATACAACCATAAAATGATAATTACACCCATAAATTGATAATTATCACACAACGAAATTGATATTGCCTCTGATCATAGTCAGACCAACATTGCTACGACCCGTATTCGCACCGACAC”, for which the figures for the “relative integration efficiency (log2)” value in data set [1] and in data set [2] were -0.936 ± 0.18 and 2.18 ± 0.14, respectively.

In the case of “ACATTTGTTGATACAACCATAAAATGATAATTACACCCATAAATTGATAATTATCACACAACGCCCGGTCGCGGTAAGAGGATCATAGTCAGACCAACATTGCTACGACCCGTATTCGCACCGACAC”, the “relative integration efficiency (log2)” value in data set [1] was -0.696 ± 0.091; in data set [2], 2.32 ± 0.24.

For “ACATTTGTTGATACAACCATAAAATGATAATTACACCCATAAATTGATAATTATCACACCACGCAATTGATATTGCCTCTGATCATAGTCAGACCAACATTGCTACGACCCGTATTCGCACCGACAC”, the “relative integration efficiency (log2)” value in data set [1] is -0.677 ± 0.11; in data set [2], 2.1 ± 0.088.

With “ACATTTGTTGATACAACCATAAAATGATAATTACACCCATAAATTGATAATTATCACACCACGCCCGGTCGCGGTAAGAGGATCATAGTCAGACCAACATTGCTACGACCCGTATTCGCACCGACAC”, the “relative integration efficiency (log2)” value in data set [1] was -0.546 ± 0.089; in data set [2] it was 2.46 ± 0.034.

Turning to “ACATTTGTTGATACAACCATAAAATGATAATTACACCCATAAATTGATAATTATCACACCACTAAATTGATATTGCCTCTGATCATAGTCAGACCAACATTGCTACGACCCGTATTCGCACCGACAC”, the “relative integration efficiency (log2)” value is -0.503 ± 0.044 in data set [1] and 2.35 ± 0.27 in data set [2].

As for “ACATTTGTTGATACAACCATAAAATGATAATTACACCCATAAATTGATAATTATCACACCCAGCCCGGTCGCGGTAAGAGGATCATAGTCAGACCAACATTGCTACGACCCGTATTCGCACCGACAC”, the “relative integration efficiency (log2)” value in data set [1] was -0.344 ± 0.16; in data set [2] it was 2.65 ± 0.059.

For the sequence “ACATTTGTTGATACAACCATAAAATGATAATTACACCCATAAATTGATAATTATCACACCCATAAAGGTCGCGGTAAGAGGATCATAGTCAGACCAACATTGCTACGACCCGTATTCGCACCGACAC”, the “relative integration efficiency (log2)” value in data set [1] was -0.82 ± 0.057; in data set [2], 2.16 ± 0.14.

Take “ACATTTGTTGATACAACCATAAAATGATAATTACACCCATAAATTGATAATTATCACACCCATAAATGTCGCGGTAAGAGGATCATAGTCAGACCAACATTGCTACGACCCGTATTCGCACCGACAC”: the “relative integration efficiency (log2)” value in data set [1] was -0.671 ± 0.0087; in data set [2], 2.19 ± 0.15.

Consider “ACATTTGTTGATACAACCATAAAATGATAATTACACCCATAAATTGATAATTATCACACCCATAAATTGAGCGGTAAGAGGATCATAGTCAGACCAACATTGCTACGACCCGTATTCGCACCGACAC”, for which the “relative integration efficiency (log2)” value was -0.428 ± 0.035 in data set [1] and 1.6 ± 0.023 in data set [2].

For the sequence “ACATTTGTTGATACAACCATAAAATGATAATTACACCCATAAATTGATAATTATCACACCCATAAATTGATACTCTGATCATAGTCAGACCAACATTGCTACGACCCGTATTCGCACCGACACTGAC”, the “relative integration efficiency (log2)” value amounted to 0.0156 ± 0.031 in data set [1] and 0.201 ± 0.14 in data set [2].
